# Measured values published in the NTF2 design screens of Basanta et al. (2020).
# Test: protease stability score; higher = more stable; yeast display proteolysis, trypsin and chymotrypsin;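 note: log10 excess protease needed over predicted unfolded state with 0 meaning unfolded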
row,Sequence,protease stability score
1,DEEQRRMVQELFKALQHGDPDKVEELVDPNAQLHYGDKTVTGREEMHRWIEHLLDKIRIHFQRVSVRSRNGRAIAHATVEVVFNGKPDTVTFDLEANVHNGKFRRIVLRFPEEAQKKLKR,1.48
2,DEREAKKVVEDLKRGDWNKLMQLVDPNAKAVVGDKRVHGREQVQHMMQQFQDRIDHMEIRSVRVHNGRIEVDATFIFNGQSVRVIFHITVHNGRIQEIHVQATNEKVKHQLRKFLS,1.07
3,DESLQHMAEEMLEVWQTGDKERAATMMDKDARVRVGDHTVRGRESLQKNIETEKEQMRVQIRHVDARVHNGRVDVKVEVELDHNGKPQRVVYNIDFRAHNGRVQEIHIQEDG,-0.181
4,DEQKQAHDLLRQLDEAMRENDPDTMRDLFDKDAHVKVGDKEFRGTQKVREFNEELKRQADHFSVDVKRMETRPGHFNVQLVLHMETNGRTDHLKFRVRMRVVNGRAVVVTLHQG,0.692
5,DESDLSRQAKELIDNWETGNPDKMRKLMDENVTADVGDKRWHGRDEVVKWFKTLVDSIDHIEVREFKVSGNSVTFTAEANVNGKKATFQVVIEVHNGKIKDVKVNPDDLKQLEK,1.58
6,DEELAKHFERVVRENNPDELQKQFDEDARVSVGNKRYHGREKVNDAIKRFMTNADEIRIEDIEIHGETIKVVYRFRVDGQSARVVMVVNIKDGRVKEMKISATDPRDVKVLDEVME,1.7
7,DEEALKQAEEILTQRQTGNPQEVMKNMDKNVKFDYGDKTIHGKENLEKDVEKERTEMRYEIKSVEFRARGNKVVADFRATFNVNGHPFSVRVVFIAHFEDGKIKKATENVSEEQRKKMKS,0.084
8,DETEVAHRFLNQERRNWKTGNRQSFENMFRDNVRAQYGDKTVTGREDMKRWLDRILKEVDHVRIEIKDLKREPGRVSLDVVVVFEHNGHKDKKRYVIDAVASGDKMIIDQVQDK,0.165
9,DEKRFTELAEKAFKIIMNGNEEEARKMGKPNVEYKYGDKEFEGEEAMQYAVQLVIKVGAEAKVRRMEVRGDTMRADFQYTLGDKTVQTTAQVQYEGDYAKKAENELSDEAKKIMHQG,0.434
10,DEEDHKKILQKIADVYQRGNPNQQRDLMDENARVVIGNTKFHGREQAMEAAEERRRQVDRIQLTSIDVHGNKFHIRVTLDINGKTVDIHIDVEVHNGKIKDVQVDPRAEKFFKG,0.202
11,DETAQDLVTTLIEAWKTNDPDSVANLMDPNATVKIGDKSVHGKKQLEEMLKKLRDEMTIDIKRVDVKVNNGDAKVNARATFTHNGKPDSRTMSAEVEWNGDKVKEFRVHWEQ,1
12,EERDMEKMDTLVRDNDWKKMKNNVDPNAQVRIGEHEYTGKQQASTAFDILQKQVDHVDIHSFKNHGDQVEVHAILRYNGQNFQVNFRFRVHNGRFKKFSVEFTSEQQNKIMEEWLG,-0.039
13,DEETHANEFLKTREKALTSNDETELRRLVPPDVRFQVGDKQIHGREEWARKLKDDRTRVDHVTVRVVSITVRPNHIKVNLQEEVVVNGTRSRDRYEAHIVNENGHMQMHSFRQQ,-0.396
14,DEEKLMRNMIKKVSKLLKEGNWDEIANNADKNAKYDVGDTEVHGKEHAQEMHDRFRQNVDHAELSVTRVDVKGDKVQVHVDHSFTNNGRKHKFHLIFWASNVNGRMVIKSVQQK,0.565
15,DEDSQTKLAELFITALEEGDPELANKNVDENARADVGDKTLHGREDVSRMVHDLRRRADHIQVETLEVRNGRVDAIIVIDVNGKKVRFRMEIEIHNGRIKHLRMKSE,0.653
16,DEEEADSWMKILQTNDEKKARDNIDPNATAHVGEQRFDGAQDFVARFMQVLKSADHVRIHSVDHEGDKVRMDITFDINGQRARVVLNIQIKNGRVVHVSVEVRNEEVKKVFDKALK,0.16
17,DDDLRRRLHEFWENMQEGDEKRLREMADPNVRFEVGDKSIHGREEFARKVKELHEQQRFSVRIDRMDNQGNKVDITFHVTQKHNGRPNRYTARVTITAHNGKIKSVSVDISQ,0.391
18,DEEDEARKMMEELDKAWKTGDSERYAQLLDPNARMVIGDKEYHGRDDVRKWFHEMLRRVDHVQLHLTSIDIRNGKVDARAEVRLNHNGKDTSDTVIFRLQHDNGHIKIRSVKNK,0.251
19,DERDMKAIVRAVKAFRRNNPEEVRENVDENVRIHVGDKEVHGRDQLKRDMEREVKTWRRSIRRISIDNQGDTVNVDIDQEKKHDGDPNREQNVVHFVAQNGKIKSVEQRHDG,0.748
20,DEKNEDAARKLFNAWKQNDPDHARKLADPNVRFKYGDTQVHGRDQYARELRETNKQMRLEYKHVTIRVKNGNAEVNMNVRYNHNGQPRESTRRMTFKVENGKLVDVDIKTDK,0.133
21,EEDDQRRLQEWLSQGNFEHLAQNADKDAKASVGEYRVHGREQIKRFLERMQDRIDKVHYETVHFHNGVLRATFRFTVNGKQVVMQMRIEARGDKIKYIEMQARDEDNLKKWKELES,1.03
22,DEDAVNRYEEFVENLKSNNEHKLSEYLDPNVRLVIGDKTLHGKDNFRRRVRHMTKHMRLQLNYKDLKVQGEEIHVHADVRQTHDGKPQNTHFSASMRVNGDKAKEITIKDDG,0.207
23,EEEDEKRIKSLLEHNDFTRFAELVDKDAHAVIGDKTIHGREEIKKEIEEFKKRIDHLEWKRVDVRNGKVSARMQVTINGRTLDVYMRADVENGHIHYVEIHARTEEAQRVLDEVLS,1.58
24,DEEREAKEWMELFEDQFRQGNEHEVNKLMDKDARIHVGEKHVSGRNQAKKELKEHMKRADHIHIQLHEVDSRPGRMILDFTINQQVNGRRSSDKVRARFSKRNGRWYQESETQG,0.104
25,DEEILNKAVEALRVEHQGNRKDLKRMFDPNAKRRVGDKTITGMDNLLKELSDKRRHLNVDVKIDSLHAEGNRVELDVSQRQNTNGQPSEFRAKIVITVKNGRMVDVTIHRTK,-0.016

row,Sequence,protease stability score
1,DDEEKHKLADEVLHILRTGDHDSMARLADENAKAEIGDSRFHGRDHIRKLVKEFRDTADHIRVIDYRVKGDKIVLRMEFVFNGKTSEVNVVMRFHNGRIKDIEVDPTQVRQMEK,1.03
2,DQEEAERVVKRAIKALENGNSKELKDLGKEGVEYEFGDKKIHGPDALVKQFRTLQKKGVEMEFKEHHVEGDEAHTKVRYRNGDKENEATITATVKGGRIDRVQVNVPETIRKIVKHG,-0.076
3,DEESQARKFIKQYHDVLETGDENEARRLADENVKVHVGEFHYRGSDQYAHAVKRLRNKVDHIHMTLTEISVSNGEVNVVLKVVLNYNGTNDSFKMTMRADRVNGTLVLVEVKNG,0.389
4,DNQDARKLQEYFRNMVTGNEQRAMQYMDKDVTVHVGDKVFHGMERAVKTLVQRLKEIRVHYKFKQVSVQGNKVNIKADVEEDDNGRPETKRLEMDVEWHNGKVKKVVIKNDR,1.49
5,DHRQQVRDIFKEMQDARRKGNEKTLQKLVDPNAKAEYGDKTYHGRENVAKMLLDEAKRVDHFEVHIKTFSIKNGTARVHADVVVKHDGQKRSTDVFYVFRDHNGQMLLVRARTQ,1.38
6,DEEKRAEDFFRKLLQVMETGDEDKQRKMADPNARVIIGEKTFHGRENMAKAMKELRDRVDSIEFDLREIETEPGRIVINVVVILDHDGDKDERELNIRAKITGDTLVLEEIKDT,-0.309
7,DEEALNNLHEFFKHWNTGNPHELMKLADPNVRFQVGEKVIHGREEFMKDIKRIREELRQEIDVRDVKVQGEKLIVKATRSEERNGKPSSDTIHMTARVHNGRIKSVDIKSTS,0.435
8,DDDARERVDELLEVEQTGNREDIKRLVDPNAKVQVGDDEYHGMEVYAETVVKKRKEINIELRFKDMQVHNGRANADVEAVYDHNGRPSRMRFVLHFVIRNGKFKEIRLREDR,1.2
9,DKEEVHKLKHLLRHGDFEKINKKADKDARMQIGDRVYHGREKMKKALEILQREVDDIRVDSIKVSGDRVSAEMHMEVNGRRYVFVVVIRATNGRVVSLKVKARSESQDEHLKNLVE,0.625
10,DSEAEDLLRRILDAIRTNNREELHRQIDPNAHFEIGDREFKGMTQWATEIVRQAKEIRVDQSFHSISIRNGKLSARVEQVNETNGKPHSRQFKLRMKWHDGQVKFLSMEDDG,0.362
11,DDEAVRQIQTMVRNQNTGDPDKVAEQMDPNVQVDYGDTNLQGREHVHHWLEELKRQARFELTSVKAESQGDNIHVQVDRKVNVNGQPRRDEMHFEVRVHNGRIRSVDIQFDPDKYRQIMS,-0.28
12,DENAVRVVKELWKALNHGNPDRVQQLADKDARVQVGDKDVHGREKMAKLVDTLKKEIRMDIKVHSISASNGRAKIDFKADEENNGKPQTYEATANVTIHNGKVVSMRVNKDQ,-0.428
13,DEQAKEHIEEWMKAVKTGDEHTLREMADENAHFEIGDKTLHGMREFVKEQAERFRNIRVSYKRIDIRVQGNKVTVVVRFVVQHDGRPDERTVTFVFTFHNGQIENMQVKDEQ,1.17
14,DEHKAHRRAQELVEVMKQGDFKRWQEMADPNADVHYGDKRVHGMNEAADVMRQIRNDADHIRVKTYEAKGERIHIDFRVSFNGKQITFDLVVEIRNGTIKTAQFDPDAIRHLES,0.5
15,DTRTDLRVAEKAAKAFHTNDPEKFKKQADPNAKAQYGDKTVHGMEDIVTRLKKFKDRVDHLRLNDIKSTGEKVDLNIQINVNGKNVEAKIDFHVRNGRLKTMKVDPNAVDAYRS,-0.19
16,DKEENHMFQQAFTVEWTGDPEKVNRLMDPNAKIEVGEKRVHGMDKYAREVKREHDDMRVDVRTYSNDVHNGEVDVKVNYVKNNNGRPRHVSQSIRAHASNGKVKSVQVTERG,-0.299
17,DEEDAKNAVRAVEALVTGDPDKMSKLFDKHASVEVGDKRVRGREEIRELAEQLEREMRLRVEIKHVQIQGDKVDVKFDAQRHHNGRPDDNKQTMHLTAHDGRVKNMSITSNG,-0.376
18,DDKDVEKAVRVMQTNDPDKYERMLDEDVSMVVGDQTYHGRETVNKVYKHYLERVDHIKITRYTIRNGVATVRYVVEWNGKSADVVVHVEVHNGRAKRFEYDVRDSEDKKNMEEMIK,0.358
19,DDRDLEQLLRELVTIWKNGNFEDLSRQADPNVKFRVGDKTYHGREQASKLWKKLSDQADHWSVDSVQAKGDTLRLDFRATVNGHEVRMVYHARIQNGSITSWEIQYTSEELHTRVER,1.09
20,DDKKVHKAANRFVEMFRTGNPDDLHKQIDKDAHATVGDKTYRGRTHVVRQIIEMVERVDHVEVKSISVDGDHAKIDMVLRHDGQEERVDVVMRVHNGRFKSIEFQEQ,0.512
21,DEDAEKHWRTFLRNQKTGDEQKMRDQVDPNARASIGDQEVEGREKIVRELVEEFRHMHVQINWKSLTAHNGKVHAHADAQVDHNGRPQTYKITASAQFSNGKIKEFKMQRRP,-0.013
22,DQDHLRELVHTFNRLLEQGNFDELANMFDKNARVDVGDKSYHGQEQVRTWFKHLRQRVDHFHVKHYKVRGDEATIHVIMDVNGQKRNVTVRLSFSNGRADHIQIDPDHKQELDK,1.56
23,DEEEADKVAKDFNRMLTKGDEHRASQLFDENATVVVGDKTVHGTESIKKIIHEIHRKADHIEIDSVKNRGNKVQVDLHQDINGTRERYVFHVSFHNGRIKYAEINQD,-0.322
24,DHERILQELLDRAVKMLNTGNEEHARKLAPPHARMVVGDKTIHGMENIAHEWQKVQDRVDHVEARVHSMSVDGDKFVVIVEVTLDINGRKQTQVVTFIAVKNNGQVYVKQINIS,-0.162
25,DEHHRKEFEDMLRVEQHGNEEQLKRYMDPNARFRYGDKKVHGREEVVRQISKRRHKLRMQYDTWDIKVKGDKITADLKYVEHQNGQPEDVRVNVSIRFHNGKLVEAHRERDK,-0.001
